Target: wild-type E. coli core RNA polymerase (E. coli, UniProt P0A8T7 1-1407; P0A8V2 1-1342; P0A7Z4 1-329; P0A800 1-91)
Assay: fluorescence polarisation

wild-type E. coli core RNA polymerase, sequence (P0A8T7 whole entry, chain 1 of 4): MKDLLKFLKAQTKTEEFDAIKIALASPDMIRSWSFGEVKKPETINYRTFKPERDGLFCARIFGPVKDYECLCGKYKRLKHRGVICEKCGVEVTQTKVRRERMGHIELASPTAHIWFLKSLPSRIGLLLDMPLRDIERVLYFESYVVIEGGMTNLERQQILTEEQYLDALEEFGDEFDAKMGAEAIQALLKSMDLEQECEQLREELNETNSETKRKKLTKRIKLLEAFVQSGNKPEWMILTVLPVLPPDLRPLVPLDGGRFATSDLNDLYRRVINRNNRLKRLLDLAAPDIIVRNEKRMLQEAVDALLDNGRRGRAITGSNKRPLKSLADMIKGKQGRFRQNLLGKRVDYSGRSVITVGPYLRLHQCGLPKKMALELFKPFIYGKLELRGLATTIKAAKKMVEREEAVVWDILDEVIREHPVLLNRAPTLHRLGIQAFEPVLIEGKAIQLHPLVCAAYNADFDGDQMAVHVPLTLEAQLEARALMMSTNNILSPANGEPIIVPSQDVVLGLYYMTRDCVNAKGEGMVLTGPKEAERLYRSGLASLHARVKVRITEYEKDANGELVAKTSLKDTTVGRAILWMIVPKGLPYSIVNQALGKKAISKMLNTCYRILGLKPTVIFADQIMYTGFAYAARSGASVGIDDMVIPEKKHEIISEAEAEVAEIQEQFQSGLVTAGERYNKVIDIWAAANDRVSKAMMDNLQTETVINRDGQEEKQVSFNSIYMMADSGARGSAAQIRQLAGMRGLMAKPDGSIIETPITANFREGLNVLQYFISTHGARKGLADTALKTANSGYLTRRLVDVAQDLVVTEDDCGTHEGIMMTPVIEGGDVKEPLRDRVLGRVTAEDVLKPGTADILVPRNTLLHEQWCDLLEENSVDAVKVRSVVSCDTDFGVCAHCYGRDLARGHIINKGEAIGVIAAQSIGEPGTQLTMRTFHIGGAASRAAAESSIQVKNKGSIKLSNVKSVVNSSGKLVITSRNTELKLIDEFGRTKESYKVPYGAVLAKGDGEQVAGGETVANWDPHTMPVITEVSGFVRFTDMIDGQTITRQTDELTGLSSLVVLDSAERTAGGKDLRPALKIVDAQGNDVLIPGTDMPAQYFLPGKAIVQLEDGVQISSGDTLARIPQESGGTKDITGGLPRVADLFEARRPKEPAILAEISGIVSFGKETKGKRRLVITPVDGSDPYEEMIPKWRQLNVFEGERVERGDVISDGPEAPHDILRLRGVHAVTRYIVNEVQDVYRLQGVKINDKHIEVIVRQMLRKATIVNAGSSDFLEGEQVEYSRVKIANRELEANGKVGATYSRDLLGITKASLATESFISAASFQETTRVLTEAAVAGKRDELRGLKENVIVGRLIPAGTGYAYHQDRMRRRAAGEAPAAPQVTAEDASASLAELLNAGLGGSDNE
wild-type E. coli core RNA polymerase, sequence (P0A8V2 whole entry, chain 2 of 4): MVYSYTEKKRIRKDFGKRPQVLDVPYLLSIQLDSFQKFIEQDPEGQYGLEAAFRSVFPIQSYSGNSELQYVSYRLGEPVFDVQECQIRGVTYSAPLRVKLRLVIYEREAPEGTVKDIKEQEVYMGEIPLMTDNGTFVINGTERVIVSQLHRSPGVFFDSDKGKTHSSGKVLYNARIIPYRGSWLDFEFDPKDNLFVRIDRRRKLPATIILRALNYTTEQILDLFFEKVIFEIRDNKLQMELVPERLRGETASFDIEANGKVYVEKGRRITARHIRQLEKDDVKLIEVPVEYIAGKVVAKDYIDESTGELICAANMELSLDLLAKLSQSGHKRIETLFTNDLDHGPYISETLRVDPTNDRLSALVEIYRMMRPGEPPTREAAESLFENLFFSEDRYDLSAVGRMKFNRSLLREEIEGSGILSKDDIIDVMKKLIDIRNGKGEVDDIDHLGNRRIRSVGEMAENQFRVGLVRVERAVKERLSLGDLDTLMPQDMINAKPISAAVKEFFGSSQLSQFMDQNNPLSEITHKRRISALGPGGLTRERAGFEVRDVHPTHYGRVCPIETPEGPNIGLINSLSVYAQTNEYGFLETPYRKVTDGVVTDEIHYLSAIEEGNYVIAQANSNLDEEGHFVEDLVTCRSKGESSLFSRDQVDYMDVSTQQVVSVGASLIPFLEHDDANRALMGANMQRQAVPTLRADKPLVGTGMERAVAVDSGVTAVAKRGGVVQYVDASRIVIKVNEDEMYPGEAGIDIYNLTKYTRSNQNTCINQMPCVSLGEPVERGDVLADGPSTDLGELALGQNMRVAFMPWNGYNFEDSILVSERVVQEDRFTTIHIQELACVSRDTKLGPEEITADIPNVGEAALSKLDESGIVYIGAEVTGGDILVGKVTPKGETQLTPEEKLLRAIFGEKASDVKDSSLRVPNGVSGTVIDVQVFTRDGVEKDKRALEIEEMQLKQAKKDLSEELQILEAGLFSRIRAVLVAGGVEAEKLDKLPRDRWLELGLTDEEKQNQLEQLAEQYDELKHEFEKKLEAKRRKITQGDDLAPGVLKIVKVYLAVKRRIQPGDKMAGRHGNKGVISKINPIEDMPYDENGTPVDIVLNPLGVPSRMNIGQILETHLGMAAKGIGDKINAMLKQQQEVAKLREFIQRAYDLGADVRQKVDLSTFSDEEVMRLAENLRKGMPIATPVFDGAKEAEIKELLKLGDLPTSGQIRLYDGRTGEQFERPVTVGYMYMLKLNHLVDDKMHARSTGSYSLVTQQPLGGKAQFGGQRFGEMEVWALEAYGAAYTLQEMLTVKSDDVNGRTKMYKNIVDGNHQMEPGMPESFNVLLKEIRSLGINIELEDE
wild-type E. coli core RNA polymerase, sequence (P0A7Z4 whole entry, chain 3 of 4): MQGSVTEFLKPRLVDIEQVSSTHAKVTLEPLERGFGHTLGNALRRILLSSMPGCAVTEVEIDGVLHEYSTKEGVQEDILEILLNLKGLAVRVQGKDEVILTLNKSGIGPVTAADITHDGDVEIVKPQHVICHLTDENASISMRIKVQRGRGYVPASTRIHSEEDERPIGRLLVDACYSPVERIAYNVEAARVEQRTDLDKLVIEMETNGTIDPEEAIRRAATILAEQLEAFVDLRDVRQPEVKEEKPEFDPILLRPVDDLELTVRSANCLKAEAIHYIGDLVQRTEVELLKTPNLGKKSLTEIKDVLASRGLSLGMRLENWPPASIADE
wild-type E. coli core RNA polymerase, sequence (P0A800 whole entry, chain 4 of 4): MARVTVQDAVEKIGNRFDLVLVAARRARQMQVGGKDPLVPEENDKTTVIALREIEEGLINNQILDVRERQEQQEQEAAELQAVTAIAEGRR

B1: DksA^A35C labeled with Alexa Fluor 546 maleimide (natural protein, Escherichia coli, UniProt P0ABS1 1-151, looked up)
chain: MQEGQNRKTSSLSILAIAGVEPYQEKPGEEYMNECQLAHFRRILEAWRNQLRDEVDRTVTHMQDEAANFPDPVDRAAQEEEFSLELRNRDRERKLIKKIEKTLKKVEDEDFGYCESCGVEIGIRRLEARPTADLCIDCKTLAEIREKQMAG
modifications: labeled with Alexa Fluor 546 maleimide (labeling efficiency 60-100%)
Kd: 102 ± 13 nM

— publication PMC3333854 (Nucleic Acids Research, 2011)
